Laboratory results reported in IntAct's records for PubMed 29039417.

B1: BBSome complex member BBS4 (Homo sapiens), Q96RK4 (parent)
chain: MAEERVATRTQFPVSTESQKPRQKKAPEFPILEKQNWLIHLHYIRKDYEACKAVIKEQLQETQGLCEYAIYVQALIFRLEGNIQESLELFQTCAVLSPQSADNLKQVARSLFLLGKHKAAIEVYNEAAKLNQKDWEISHNLGVCYIYLKQFNKAQDQLHNALNLNRHDLTYIMLGKIHLLEGDLDKAIEVYKKAVEFSPENTELLTTLGLLYLQLGIYQKAFEHLGNALTYDPTNYKAILAAGSMMQTHGDFDVALTKYRVVACAVPESPPLWNNIGMCFFGKKKYVAAISCLKRANYLAPFDWKILYNLGLVHLTMQQYASAFHFLSAAINFQPKMGELYMLLAVALTNLEDIENAKRAYAEAVHLDKCNPLVNLNYAVLLYNQGEKKNALAQYQEMEKKVSLLKDNSSLEFDSEMVEMAQKLGAALQVGEALVWTKPVKDPKSKHQTTSTSKPASFQQPLGSNQALGQAMSSAAAYRTLPSGAGGTSQFTKPPSLPLEPEPAVESSPTETSEQIREK
partner: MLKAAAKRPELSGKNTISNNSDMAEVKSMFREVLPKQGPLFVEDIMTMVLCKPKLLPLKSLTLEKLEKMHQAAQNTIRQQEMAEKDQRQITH

Variants of: B1
Conditions: with bbip1_human BBIP1, A8MTZ0

Variant	effect of a mutation on the interaction
A379V	disrupting interaction strength
A379K	with no effect
A379E	with no effect
Y383E	with no effect
Y383K	with no effect
Y383A	with no effect
Y395A	with no effect
Y395K	with no effect
Y395H	disrupting interaction strength
Y395E	with no effect
N377D	disrupting interaction strength
N377S	disrupting interaction strength
N377C	disrupting interaction strength
N377A	with no effect
N377E	with no effect
N377I	disrupting interaction strength
N377K	with no effect
N377R	disrupting interaction strength
N375A	with no effect
N375E	with no effect
N375K	with no effect

Variant	effect of a mutation on the interaction
L392E	with no effect
L392A	with no effect
L392P	disrupting interaction strength
L392K	with no effect
E387G	disrupting interaction strength
E387A	with no effect
E387K	with no effect
A391E	with no effect
A391K	with no effect
A391T	disrupting interaction strength
A391V	disrupting interaction strength
L376E	with no effect
L376A	with no effect
L376K	with no effect
L376P	disrupting interaction strength
L376R	disrupting interaction strength
Q396K	with no effect
Q396A	with no effect
Q396E	with no effect
Q385K	with no effect
Q385A	with no effect

Variant	effect of a mutation on the interaction
Q385E	with no effect
Q394L	disrupting interaction strength
Q394K	with no effect
Q394R	disrupting interaction strength
Q394E	with no effect
Q394A	with no effect
G386E	with no effect
G386A	with no effect
G386K	with no effect
L381P	disrupting interaction strength
L381K	with no effect
L381A	with no effect
L381E	with no effect
M398A	with no effect
M398E	with no effect
M398K	with no effect
N390E	with no effect
N390L	disrupting interaction strength
N390K	with no effect
N390A	with no effect
N384K	with no effect

Variant	effect of a mutation on the interaction
N384Y	disrupting interaction strength
N384E	with no effect
N384A	with no effect
K388E	with no effect
K388A	with no effect
V380E	with no effect
V380A	disrupting interaction strength
V380K	with no effect
E397K	with no effect
E397A	with no effect
K389A	with no effect
K389E	with no effect
L382E	with no effect
L382A	with no effect
L382K	with no effect
L382P	disrupting interaction strength
Y378K	with no effect
Y378A	with no effect
Y378E	with no effect

Next, values leading:

effect of a mutation on the interaction	Variant
with no effect	L404A
with no effect	L404E
with no effect	L404K
with no effect	A421K
disrupting interaction strength	A421V
with no effect	A421E
with no effect	V402E
with no effect	V402A
with no effect	V402K
with no effect	M420E
with no effect	M420A
with no effect	M420K
with no effect	G431K
with no effect	G431A
with no effect	G431E
with no effect	G425K
with no effect	G425E
with no effect	G425A
with no effect	S403E
with no effect	S403K
with no effect	S403A
with no effect	E412K
with no effect	E412A

effect of a mutation on the interaction	Variant
with no effect	A426K
with no effect	A426E
with no effect	S410K
with no effect	S410A
with no effect	S410E
with no effect	E399A
with no effect	E399K
with no effect	F413A
with no effect	F413E
with no effect	F413K
with no effect	A427K
with no effect	A427E
with no effect	Q422K
with no effect	Q422E
with no effect	Q422A
with no effect	K406E
with no effect	K406A
with no effect	D407K
with no effect	D407A
with no effect	D407E
disrupting interaction strength	L424S
disrupting interaction strength	L424A
with no effect	L424E

effect of a mutation on the interaction	Variant
with no effect	L424K
with no effect	D414E
with no effect	D414K
with no effect	D414A
with no effect	S409A
with no effect	S409E
with no effect	S409K
with no effect	L411A
with no effect	L411K
with no effect	L411E
with no effect	N408A
with no effect	N408E
with no effect	N408K
with no effect	L405K
with no effect	L405A
with no effect	L405E
with no effect	V430A
with no effect	V430E
with no effect	V430K
with no effect	K423A
with no effect	K423E
with no effect	E419K
with no effect	E419A

effect of a mutation on the interaction	Variant
with no effect	E416A
with no effect	E416K
with no effect	M417K
with no effect	M417E
with no effect	M417A
with no effect	Q429A
with no effect	Q429K
with no effect	Q429E
with no effect	L428K
disrupting interaction strength	L428P
with no effect	L428E
with no effect	L428A
with no effect	K400A
with no effect	K400E
with no effect	S415K
with no effect	S415E
with no effect	S415A
disrupting interaction strength	K401V
with no effect	K401A
disrupting interaction strength	K401E
with no effect	V418K
with no effect	V418E
with no effect	V418A
